The target of this test is T1, amylin receptor (nucleus accumbens membranes prepared from rat brain) (rat, UniProt P32214 25-516).
T1 chain 1: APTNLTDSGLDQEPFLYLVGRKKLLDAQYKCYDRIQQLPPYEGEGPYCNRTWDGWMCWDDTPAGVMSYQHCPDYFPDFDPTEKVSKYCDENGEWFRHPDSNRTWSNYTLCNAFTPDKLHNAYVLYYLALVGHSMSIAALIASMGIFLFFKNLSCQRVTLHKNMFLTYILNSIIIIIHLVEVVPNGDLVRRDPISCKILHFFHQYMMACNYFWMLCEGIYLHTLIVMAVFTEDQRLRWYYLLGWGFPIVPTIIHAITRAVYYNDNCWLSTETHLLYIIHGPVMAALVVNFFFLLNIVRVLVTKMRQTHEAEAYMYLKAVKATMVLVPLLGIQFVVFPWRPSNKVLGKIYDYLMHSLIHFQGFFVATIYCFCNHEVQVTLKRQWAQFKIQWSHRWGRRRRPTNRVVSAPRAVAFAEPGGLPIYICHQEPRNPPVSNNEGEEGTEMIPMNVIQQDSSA
T1 chain 2: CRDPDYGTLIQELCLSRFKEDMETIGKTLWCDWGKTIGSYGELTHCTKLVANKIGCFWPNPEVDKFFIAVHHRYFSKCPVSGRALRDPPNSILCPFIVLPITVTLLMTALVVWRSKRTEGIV
Kind of test: radioligand binding assay (displacement of radiolabeled amylin).

Ends that are not written are not given here.

The term EC50 denotes the concentration that produces a half-maximal response. Read a high EC50 as weaker potency. For TQAQLLRVGCVLGTCQVQNLSHRLWQLMGPAGRQDSAPVDPSSPHSY-NH2 (ends and bridges not checked) [Human AFP-6 [1-47]], the EC50 was 2.9 nM. The figure for CGNLSTCMLGTYTQDFNKFHTFPQTAIGVGAP-NH2 (ends and bridges not checked) [Human Calcitonin] is greater than 100 nM.

(Values after patent publication US20080207501A1 (published 2008).)
